Test [1] concerns the target T1, HuCDCP1-A (human, UniProt Q9H5V8 30-430).
T1 construct: range 30-430; expressed in HEK-293T, purified by Fc/his tag; also called human CDCP1-A; membrane-distal region of CDCP1; not shown: Fc or his tag
T1 sequence (looked up): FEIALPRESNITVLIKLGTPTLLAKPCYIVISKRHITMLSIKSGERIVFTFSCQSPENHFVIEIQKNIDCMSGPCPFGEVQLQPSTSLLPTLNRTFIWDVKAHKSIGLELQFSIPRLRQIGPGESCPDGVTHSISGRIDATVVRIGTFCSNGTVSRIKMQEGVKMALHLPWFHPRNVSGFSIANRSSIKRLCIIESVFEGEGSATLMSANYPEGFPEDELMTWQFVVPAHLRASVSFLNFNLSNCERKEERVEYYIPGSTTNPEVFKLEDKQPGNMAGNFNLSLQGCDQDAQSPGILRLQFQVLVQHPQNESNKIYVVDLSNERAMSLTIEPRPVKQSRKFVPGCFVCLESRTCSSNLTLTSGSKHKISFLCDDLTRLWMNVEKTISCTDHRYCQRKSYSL
Nature of the test: SPR (Caterra), antigen immobilized. Here is the method: (§1) The humanized anti-CDCP1 antibodies obtained from Example 11 were subjected to gene cloning, constructed into pTT5 expression vector for a small amount of expression in CHO cells (Expi-CHOS: Gibco A29127), and purified with an Fc affinity column (AT Protein A Diamond Plus. No. AA402312). Antibody purity was analyzed by HPLC and determined by Nanodrop. High-throughput affinity assay was carried out for a small amount of antibodies by Caterra.
(§2) Further, Partial anti-CDCP1 humanized antibodies were selected for expression, and then the affinity of the antibodies to the antigens Hu-CDCP1-A, Hu-CDCP1-B, Cyno-CDCP1, and Ms-CDCP1 was detected according to the above affinity detection method.

Test [2] addresses T2, MsCDCP1 (mouse, UniProt Q5U462 30-666).
T2 construct: extracellular domain; also called mouse CDCP1; not shown: Fc or his tag
T2 sequence (looked up): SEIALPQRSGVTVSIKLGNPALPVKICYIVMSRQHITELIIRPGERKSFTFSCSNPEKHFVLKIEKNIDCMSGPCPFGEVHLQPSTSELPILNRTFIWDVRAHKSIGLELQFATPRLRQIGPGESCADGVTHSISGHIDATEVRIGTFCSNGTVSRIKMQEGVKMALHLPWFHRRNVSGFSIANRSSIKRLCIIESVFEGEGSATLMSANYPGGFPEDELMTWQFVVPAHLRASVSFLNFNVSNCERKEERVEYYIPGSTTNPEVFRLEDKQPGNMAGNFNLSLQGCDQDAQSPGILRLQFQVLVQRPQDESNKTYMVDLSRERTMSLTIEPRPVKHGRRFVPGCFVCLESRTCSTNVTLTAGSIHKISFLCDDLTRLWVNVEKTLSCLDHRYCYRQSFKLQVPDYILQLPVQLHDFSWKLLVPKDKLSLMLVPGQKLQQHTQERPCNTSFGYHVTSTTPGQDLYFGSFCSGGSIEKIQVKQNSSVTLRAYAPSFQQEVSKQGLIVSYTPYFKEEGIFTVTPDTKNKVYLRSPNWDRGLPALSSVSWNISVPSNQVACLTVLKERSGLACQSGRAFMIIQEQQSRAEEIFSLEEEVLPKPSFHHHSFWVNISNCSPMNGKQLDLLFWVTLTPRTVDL
The experiment in a line: SPR (Caterra), antigen immobilized. Here is the method:
as §1, §2

B1: 1CP-157 (antibody, human IgG1, kappa, V domains shown)
VH: EVQLVESGGGLVQPGRSLRLSCTTSGLTFTHYHMSWVRQAPGKGPEWVAIIRNKAYGYTTDYSASVRGRFTISRDDSKSILYLQMNSLKTEDTAVYYCVREGGYGYDGTFAYWGQGTLVTVSS
VL: DIQMTQSPSSLSASVGDRVTITCRASESVDNYGISFMNWFQQKPGQPPKLLIYAASNQGSGVPSRFSGSGSGTDFTLTISSMQPEDFATYYCQQSKEVPRTFGGGTKVEIKR
notes: humanized 8C9, human IgG1 kappa
As usually defined, the Kd is the equilibrium constant for the complex coming apart. A higher Kd goes with a looser complex. B1 gave a Kd in test [1] of 226 nM. Besides, in test [2], the binding result is given as “no binding (tested: 150 nM highest concentration)”.

Source of the values: patent publication US20260250410A1 (SICHUAN HUIYU PHARMACEUTICAL, published 2026).
